Results on 11 molecules are retold here after patent US20240076412A1 (NATIONAL INSTITUTE OF BIOLOGICAL SCIENCES BEIJING, published 2024).

The target of assay [1] is T1, extracellular domain of human CD47 (CD47-ECD), residues 1-118, with His6 tag and Avi tag (human, UniProt Q08722 19-136, biotin modification at the C-terminus (Avi tag, BirA) in the form called CD47-Bio).
T1 construct: also called CD47-ECD-His6; CD47-Bio; not shown: His6 tag and Avi tag from the vector
Briefly: CD47 binding ELISA, bio-CD47 captured on neutravidin, full-length IgG1. A general note: ELISA stands for enzyme-linked immunosorbent assay.

Assay [2] addresses T1, extracellular domain of human CD47 …. Briefly: SIRPα competition ELISA, CD47-ECD-His6 coated, competitor 0.5 nM biotinylated SIRPα-d1-mFc.
Experimental: (§1) The wash, development and read steps are the same as hCD47 binding ELISA. The OD450 values were transformed to Inhibition % in data analysis.
(§2) B. Antibodies in the form of full-length IgG1 were 3-fold serial diluted (starting at 40 nM, 12 concentrations total).
Assay [3] shares this target. Briefly: SPR (Biacore T200), IgG1 captured on CM5 chip, CD47 as analyte; the column head prints KD (nM), but the cell equals kd/ka in M [Con't].
Experimental: (§3) 1 μg/mL of anti-CD47 full length IgG1 antibodies were captured onto a CM5 chip for 30 s at 10 μl/min. CD47 in 2-fold serial dilutions (starting at 100 nmol, seven concentrations total) were injected over the antibody-bound surface for 120 s at 30 μl/min followed by a 240 s dissociation phase. After each cycle, the surface was regenerated with magnesium chloride.
For assay [4] the target is unchanged. Briefly: SPR (Biacore T200), IgG1 captured on CM5 chip, CD47 as analyte; the column head also prints x 10^6, not applied because kd/ka of the cells gives the KD cell in M [Con't]. (In general: SPR reads the build-up and loss of mass on a sensor chip optically.)
Experimental: as §3
For assay [5] the target is unchanged. Briefly: SPR (Biacore T200), IgG1 captured on CM5 chip, CD47 as analyte; the column head also prints x 10^-3, not applied because kd/ka of the cells gives the KD cell in M [Con't].
Experimental: as §3
Assay [6] shares this target. Briefly: self-competition of unlabelled SIRPα against labelled SIRPα for CD47 (% inhibition); the sheet prints only SIRPα, taken as the unlabelled SIRPα-d1-mFc of the competition ELISA of Example 1.
The target of assay [7] is extracellular domain of human CD47 (CD47-ECD), residues 1-118, with His6 tag and Avi tag (human) (UniProt Q08722). Briefly: SPR (Biacore), scFv-hFc captured on anti-human IgG Fc CM5 chip, CD47 as analyte, 1:1 Langmuir model.
Assay [8] has the same target. Briefly: SPR (Biacore), scFv-hFc captured on anti-human IgG Fc CM5 chip, CD47 as analyte, 1:1 model; column head x 10^6 applied.
The target is the same in assay [9]. Briefly: SPR (Biacore), scFv-hFc captured on anti-human IgG Fc CM5 chip, CD47 as analyte, 1:1 model; column head x 10^-3 applied.
Assay [10] has the same target. Briefly: competition of the CD47/SIRPα interaction (% inhibition); the format is not stated for this panel, taken as the SIRPα competition ELISA of Example 1 with labelled SIRPα as competitor.
Assay [11] has the same target. Briefly: phage-scFv ELISA on captured CD47-Bio.
In assay [12] the target is T1, extracellular domain of human CD47 …. Briefly: SPR (Biacore T200), IgG1 captured on CM5 chip, CD47 as analyte [Con't].
Experimental: SPR was performed on a Biacore T200. 1 μg/mL of anti-CD47 full length IgG1 antibodies were captured onto a CM5 chip for 30 s at 10 μl/min. CD47 in 2-fold serial dilutions (starting at 100 nmol, seven concentrations total) were injected over the antibody-bound surface for 120 s at 30 μl/min followed by a 240 s dissociation phase. After each cycle, the surface was regenerated with magnesium chloride.
Assay [13] shares this target. Briefly: CD47 binding ELISA, bio-CD47 captured on neutravidin, full-length IgG1. This is another data set of the same source.
Experimental: CD47 binding ELISA: 2 μg/mL of neutravidin (Sigma) in phosphate buffered saline (PBS) was coated in U-bottom 96-well plate (Nunc, MaxiSorp™), 100 μL per well, at 4° C. overnight or 37° C. for 1 hour. 2 μg/mL of bio-CD47 in PBS containing 2% nonfat milk were then captured onto the plates at 100 μL per well by incubation at 30° C. for 1 hour. […] In between each incubation step, the ELISA plate was washed for 6 times with PBST solution (0.05% Tween20 containing PBS) at 200 μL per well. Followed by HRP-conjugated antibody incubation, the ELISA signal was developed by incubating with TMB substrate (Sigma) for 5-10 mins at 30° C. and then stop the reaction with 2M H₂SO₄ at 50 μL per well. The absorbance at 450 nm was read by a microplate reader (Bio-Rad). For scFv-Fc or IgG1 based ELISA, the method was basically the same as described above for phage-scFvs except the bound antibodies were detected by HRP-conjugated mouse anti-human IgG Fc antibody (Sigma).
In FIG. 3, A. Antibodies in the form of full-length IgG1 were 3-fold serial diluted (starting at 10 nM, 12 concentrations total). B. Antibodies in the form of full-length IgG1 were 3-fold serial diluted (starting at 40 nM, 12 concentrations total).
For assay [14] the target is unchanged. Briefly: SIRPα competition ELISA, CD47-ECD-His6 coated, competitor 0.8 nM biotinylated SIRPα-d1-mFc.
Experimental: as §1, §2

Read-outs that look alike come from different tables or passages of the source.

B1: AB6.12 (antibody, V domains shown)
VH: QMQLVQSGAEVKKTGSSVKVSCKASGFNIKDYYLHWVRQAPGQALEWMGWIDPDQGDTEYAQKFQDRVTITRDRSMSTAYMELSSLRSEDTAMYYCNAAYGSSSYPMDYWGQGTTVTVSS
VL: NIQMTQSPSAMSASVGDRVTITCKASQDIHRYLSWFQQKPGKVPKHLIYRANRLVSGVPSRFSGSGSGTEFTLTISSLQPEDFATYYCLQYDEFPYTFGGGTKVEIKR
In the case of B1, in assay [1], the “EC50 (read off the curve)” value is about 0.2 nM. Besides, the “IC50 (read off the curve)” value in [2] is about 6 nM. Moreover, the Kd in [3] was 1.76 nM. The kon in [4] stood at 1.06e+06 M⁻¹ s⁻¹. Besides, in assay [5], the koff is 0.00186 s⁻¹.

B2: SIRPα-d1-mFc fusion protein (Fc fusion, human, UniProt P78324 31-148, looked up)
chain: EEELQVIQPDKSVLVAAGETATLRCTATSLIPVGPIQWFRGAGPGRELIYNQKEGHFPRVTTVSDLTKRNNMDFSIRIGNITPADAGTYYCVKFRKGSPDDVEFKSGAGTELSVRAKP
modifications: biotinylated with Sulfo-NHS-SS-Biotin where used as the labelled ligand
notes: range 1-148; also called bio-SIRPα-d1-mFc; biotinylated SIRPα-d1-mFc; not shown: mouse IgG2a Fc fragment
On to B2, for which, in [6], the “IC50 (read off the curve)” value is about 4 nM.

B3: BC18 scFv-hFc (Fc fusion, part only; not given: scFv linker, domain order, IgG1 Fc, not shown: another chain or arm of the molecule; a dimerising Fc or GST; small tags and cut ends)
VH: QVQLQQSGPGLVKPSETLSLTCTVSGDSINYHYWSWIRQPPGKGLEWIGYIYYSGSTTYNPSLKSRVTMSVDPSKNHFSLKLTSVTAADTALYFCARQRGAYDYWGQGTQVTVSS
VL: DIQLTQSPSSVSASVGDRVTIACRASQDIGSRLVWYQQRPGKAPKLLIYAASSLQSGVPSRFSGSGSGTDFTLTISSLQPEDFATYYCQQSYSTPYSFGQGTKLEIK
In [7], B3 returned a dissociation constant (Kd) of 1.43 nM. In assay [8], this molecule yielded a kon of 2.41e+06 M⁻¹ s⁻¹. The molecule also came in with an off-rate (koff) in assay [9] of 0.00328 s⁻¹. The molecule further yielded an IC50 (read off the curve) in assay [10] of 10 nM.

B4: BC7 scFv-hFc (Fc fusion, part only; not given: scFv linker, domain order, IgG1 Fc, not shown: another chain or arm of the molecule; a dimerising Fc or GST; small tags and cut ends)
VH: QVQLQQSGPGLVKPSETLSLTCTVSGDSINYHYWSWIRQPPGKGLEWIGYIYYSGSTTYNPSLKSRVTMSVDPSKNHFSLKLTSVTAADTALYFCARQRGAYDYWGQGTLVTVSS
VL: DIVMTQSPSSVSASVGDRVTITCRASQGIGSRLAWYQQKPGKAPQLLIYAASSLQSGVPSRFSGSGSGTEFTLTISSLQPDDFATYYCQQYNSFSPITFGQGTRLEIK
In [7], B4 registered a Kd of 3.27 nM. In assay [8], the kon was 1.84e+06 M⁻¹ s⁻¹. This molecule also displayed a koff in assay [9] of 0.006 s⁻¹.

B5: BC18 phage-scFv (scFv, part only; not given: scFv linker, domain order, phage fusion, V domains shown, not shown: another chain or arm of the molecule; large carriers; small tags and cut ends)
VH: QVQLQQSGPGLVKPSETLSLTCTVSGDSINYHYWSWIRQPPGKGLEWIGYIYYSGSTTYNPSLKSRVTMSVDPSKNHFSLKLTSVTAADTALYFCARQRGAYDYWGQGTQVTVSS
VL: DIQLTQSPSSVSASVGDRVTIACRASQDIGSRLVWYQQRPGKAPKLLIYAASSLQSGVPSRFSGSGSGTDFTLTISSLQPEDFATYYCQQSYSTPYSFGQGTKLEIK
Molecule B5 gave an optical density at 450 nm in [11] of over 0.2 OD450.

B6: BC7 phage-scFv (scFv, part only; not given: scFv linker, domain order, phage fusion, V domains shown, not shown: another chain or arm of the molecule; large carriers; small tags and cut ends)
VH: QVQLQQSGPGLVKPSETLSLTCTVSGDSINYHYWSWIRQPPGKGLEWIGYIYYSGSTTYNPSLKSRVTMSVDPSKNHFSLKLTSVTAADTALYFCARQRGAYDYWGQGTLVTVSS
VL: DIVMTQSPSSVSASVGDRVTITCRASQGIGSRLAWYQQKPGKAPQLLIYAASSLQSGVPSRFSGSGSGTEFTLTISSLQPDDFATYYCQQYNSFSPITFGQGTRLEIK
Turning to B6, in [11], the optical density at 450 nm was over 0.2 OD450.

B7: BC7 full-length human IgG1 (antibody, V domains shown)
VH: QVQLQQSGPGLVKPSETLSLTCTVSGDSINYHYWSWIRQPPGKGLEWIGYIYYSGSTTYNPSLKSRVTMSVDPSKNHFSLKLTSVTAADTALYFCARQRGAYDYWGQGTLVTVSS
VL: DIVMTQSPSSVSASVGDRVTITCRASQGIGSRLAWYQQKPGKAPQLLIYAASSLQSGVPSRFSGSGSGTEFTLTISSLQPDDFATYYCQQYNSFSPITFGQGTRLEIK
B7: in [12], binding was characterised by a dissociation constant (Kd) of 4.81 nM, the off-rate (koff) worked out at 0.00394 s⁻¹ and the kon is 816000 M⁻¹ s⁻¹. Moreover, the “EC50 (read off the curve)” value in assay [13] was about 0.01 nM. In addition, the “IC50 (read off the curve)” value in assay [14] is about 4 nM.

B8: BC7m03 (antibody, IgG1, V domains shown)
VH: QVQLQQSGPGLVKPSETLSLTCTVSGDSINYHYWSWIRQPPGKGLEWIGYIYYSGSTTYNPSLKSRVTMSVDPSKNHFSLKLTSVTAADTALYFCARQRGAYDYWGQGTLVTVSS
VL: DIVMTQSPSSVSASVGDRVTITCRASQDIGSRLAWYQQKPGKAPQLLIYAASSLQSGVPSRFSGSGSGTEFTLTISSLQPDDFATYYCQQYNSFSPITFGQGTRLEIK
In assay [12], B8 gave a Kd of 1.46 nM, a koff of 0.00118 s⁻¹ and an association rate constant (kon) of 806000 M⁻¹ s⁻¹.

B9: BC18m03 (antibody, IgG1, V domains shown)
VH: QVQLQESGPGLVKPSETLSLTCTVSGDSINYHYWSWIRQPPGKGLEWIGYIYYSGSTTYNPSLKSRVTMSVDPSKNHFSLKLTSVTAADTALYFCARQRGAYDYWGQGTLVTVSS
VL: DIQLTQSPSSVSASVGDRVTIACRASQDIGSRLVWYQQRPGKAPKLLIYAASSLQSGVPSRFSGSGSGTDFTLTISSLQPEDFATYYCQQSYSTPYSFGQGTKLEIK
In assay [12], B9 showed a Kd of 1.6 nM, a koff of 0.00122 s⁻¹ and a kon of 762000 M⁻¹ s⁻¹.

B10: BC7m04 (antibody, IgG1, V domains shown)
VH: QVQLQQSGPGLVKPSETLSLTCTVSGDSINYHYWSWIRQPPGKGLEWIGYIYYSGSTTYNPSLKSRVTMSVDPSKNHFSLKLTSVTAADTALYFCARQRGAYDYWGQGTLVTVSS
VL: DIVMTQSPSSVSASVGDRVTITCRASQDIGSRLAWYQQKPGKAPKLLIYAASSLQSGVPSRFSGSGSGTDFTLTISSLQPEDFATYYCQQYNSFSPITFGQGTRLEIK
Consider B10, for which, in assay [12], the affinity, expressed as Kd, was 1.55 nM; the koff was found to be 0.00118 s⁻¹; the kon was found to be 763000 M⁻¹ s⁻¹.

B11: B6H12 (antibody)
chain: EVQLVESGGDLVKPGGSLKLSCAASGFTFSGYGMSWVRQTPDKRLEWVATITSGGTYTYYPDSVKGRFTISRDNAKNTLYLQIDSLKSEDTAIYFCARSLAGNAMDYWGQGTSVTVSSGGGGSGGGGSGGGGSDIVMTQSPATLSVTPGDRVSLSCRASQTISDYLHWYQQKSHESPRLLIKFASQSISGIPSRFSGSGSGSDFTLSINSVEPEDVGVYYCQNGHGFPRTFGGGTKLEIK
Turning to B11, the “EC50 (read off the curve)” value in assay [13] was about 0.02 nM.

One may read the EC50 (read off the curve) as the concentration that produces a half-maximal response. High values mean weaker potency, low ones greater potency. As usually defined, the Kd is the concentration at which binding is half-saturated. High values mean weaker binding, low ones tighter binding. As usually defined, the kon is a measure of how fast the partners come together. Lower therefore signals slower complex formation. For orientation: koff means a measure of how fast the partners let go of each other.
